Measurements taken from patent publication US10400030B2.

Molecular target: IL-17RA Fc fusion protein (human) (UniProt Q96F46)
Experiment: BIAcore T200, IL-17RA Fc fusion captured on protein G surface, single-cycle kinetics

fold improved affinity against clone 2.1: 5 fold
B1: clone 2.2 VH (VHH)
VHH: QVQLVQSGAEVKKPGASVKVSCKASGYPFTSYDINWVRQATGRSLEWMGWMNPTNGNTVYAQKFQDRVTMTRNTSISTAYMELSSLRSEDTAVYFCARGRRDDWKNNYWGQGTLVTVSS
